One molecule from paper PMC2962642, “Familial Glucocorticoid Receptor Haploinsufficiency by Non-Sense Mediated mRNA Decay, Adrenal Hyperplasia and Apparent Mineralocorticoid Excess” can be followed below.

This data set has as its target hGRalpha-R469X (Homo sapiens, UniProt P04150 1-468). The data set can be described thus: EMSA; 15 min at 25 C; 4.5% acrylamide/bisacrylamide (37:1) gel, 0.25x TBE (50 mM Tris, 50 mM boric acid, 1 mM EDTA); binding buffer and pH not stated (as in ref. 26). As to conditions: protein: ivt; label: 32P-dCTP (Klenow fill-in); 5' overhangs AGCT, filled in by Klenow for the labeled probe.

hGRalpha-R469X, sequence (P04150 1-468): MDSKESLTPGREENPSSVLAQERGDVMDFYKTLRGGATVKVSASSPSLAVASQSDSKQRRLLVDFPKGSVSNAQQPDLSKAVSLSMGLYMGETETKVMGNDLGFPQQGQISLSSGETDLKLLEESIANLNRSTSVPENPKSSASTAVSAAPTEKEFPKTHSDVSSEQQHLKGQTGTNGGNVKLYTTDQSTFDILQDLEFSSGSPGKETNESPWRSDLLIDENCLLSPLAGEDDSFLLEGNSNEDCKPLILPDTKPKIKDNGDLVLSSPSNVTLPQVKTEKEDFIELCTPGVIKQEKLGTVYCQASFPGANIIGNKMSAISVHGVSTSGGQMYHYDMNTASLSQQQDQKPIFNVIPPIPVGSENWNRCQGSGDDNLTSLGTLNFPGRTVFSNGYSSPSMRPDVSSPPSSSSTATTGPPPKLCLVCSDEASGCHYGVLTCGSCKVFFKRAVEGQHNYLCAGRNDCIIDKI

B1: GRE consensus probe (dsDNA)
DNA 1: AGCTGCTCAGCTAGAACACTCTGTTCTCTACT
DNA 2: AGCTAGTAGAGAACAGAGTGTTCTAGCTAGC
Turning to B1, the binding result was “no binding”.
